Positions count from the first letter of the chain named. Numbers in names are those of the source.

T1: human NXF1(117-619)-NXT1 heterodimer, wild type (human, UniProt Q9UBU9 117-619; Q9UKK6 1-140)
T1 construct: human NXF1 (mRNA export receptor), residues 117-619; human NXT1, coexpressed with NXF1; also called NXF1-NXT1; mRNA export receptor; source: E. coli Rosetta, coexpressed, purified (details in SI Appendix)
T1 sequence (looked up) 1: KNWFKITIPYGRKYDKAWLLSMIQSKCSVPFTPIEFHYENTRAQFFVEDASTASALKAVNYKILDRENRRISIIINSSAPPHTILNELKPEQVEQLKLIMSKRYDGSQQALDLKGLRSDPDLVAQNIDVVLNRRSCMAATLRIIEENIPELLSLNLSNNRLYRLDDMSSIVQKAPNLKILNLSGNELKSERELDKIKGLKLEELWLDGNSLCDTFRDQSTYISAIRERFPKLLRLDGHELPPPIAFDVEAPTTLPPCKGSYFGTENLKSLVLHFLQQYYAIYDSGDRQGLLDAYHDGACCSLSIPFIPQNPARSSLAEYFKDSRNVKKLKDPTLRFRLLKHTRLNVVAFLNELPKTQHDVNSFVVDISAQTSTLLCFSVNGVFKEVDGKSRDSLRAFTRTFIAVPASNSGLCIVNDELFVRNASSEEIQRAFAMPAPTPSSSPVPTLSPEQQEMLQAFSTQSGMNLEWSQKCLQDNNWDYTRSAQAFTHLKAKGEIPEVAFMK
T1 sequence (looked up) 2: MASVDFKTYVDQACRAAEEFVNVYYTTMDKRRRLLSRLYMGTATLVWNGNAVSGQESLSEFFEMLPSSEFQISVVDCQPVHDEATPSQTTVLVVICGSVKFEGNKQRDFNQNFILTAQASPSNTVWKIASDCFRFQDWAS

B1: GST-tagged SARS-CoV-2 Nsp1 E55A/E57A/K58E (natural protein)
chain: MESLVPGFNEKTHVQLSLPVLQVRDVLVRGFGDSVEEVLSEARQHLKDGTCGLVAVAEGVLPQLEQPYVFIKRSDARTAPHGHVMVELVAELEGIQYGRSGETLGVLVPHVGEIPVAYRKVLLRKNGNKGAGGHSYGADLKSFDLGDELGTDPYEDFQENWNTKHSSGVTRELMRELNGG
B2: GST-tagged SARS-CoV-2 Nsp1 L27D/V28D (natural protein)
chain: B1 chain with L27D, V28D, A55E, A57E, E58K
notes: also called hydrophobic patch mutant
B3: GST-tagged SARS-CoV-2 Nsp1 N-terminal domain (residues 1 to 129) (domain or fragment)
chain: MESLVPGFNEKTHVQLSLPVLQVRDVLVRGFGDSVEEVLSEARQHLKDGTCGLVEVEKGVLPQLEQPYVFIKRSDARTAPHGHVMVELVAELEGIQYGRSGETLGVLVPHVGEIPVAYRKVLLRKNGNK
B4: GST-tagged SARS-CoV-2 Nsp1 E91K/L92A/E93K/I95A (natural protein)
chain: B1 chain with A55E, A57E, E58K, E91K, L92A, E93K, I95A

The target of the experiment is T1, human NXF1(117-619)-NXT1 heterodimer, …. The note with it: both partners purified.
Regarding B1, the binding result was “binds”. For B2 the value was “binds”. For B3 the value was “binds”; for B4, “binds”.

The values are drawn from PMC11145185, “Inhibition of mRNA nuclear export promotes SARS-CoV-2 pathogenesis” (Proceedings of the National Academy of Sciences of the …, 2024).
